Like-named read-outs stand apart in the source and are kept apart here. Blank lines part the entries; values can stand above or below the molecule they belong to.
Tests used:
CD33 antigen (human) [1] = target: CD33 antigen (human) (UniProt P20138); experiment: competition with 125I-labelled native antibody on HEL 92.1.7 cells; IC50 (reference) / IC50 (sample)
CD33 antigen (human) [2] = target: CD33 antigen (human) (UniProt P20138)
CD33 antigen (human) [3] = target: CD33 antigen (human) (UniProt P20138); remark: listed apart in the source
CD33 antigen (human) [4] = target: CD33 antigen (human) (UniProt P20138); remark: listed apart in the source
CD33 antigen (human) [5] = target: CD33 antigen (human) (UniProt P20138); remark: listed apart in the source
[6] = target: T1, glycoprotein antigen present on colon cancer cells, recognized by A33 (Homo sapiens (Human)) (UniProt Q99795); experiment: competition on Colo205 cells, FACScan; competitor FITC-labelled murine A33
T1 sequence: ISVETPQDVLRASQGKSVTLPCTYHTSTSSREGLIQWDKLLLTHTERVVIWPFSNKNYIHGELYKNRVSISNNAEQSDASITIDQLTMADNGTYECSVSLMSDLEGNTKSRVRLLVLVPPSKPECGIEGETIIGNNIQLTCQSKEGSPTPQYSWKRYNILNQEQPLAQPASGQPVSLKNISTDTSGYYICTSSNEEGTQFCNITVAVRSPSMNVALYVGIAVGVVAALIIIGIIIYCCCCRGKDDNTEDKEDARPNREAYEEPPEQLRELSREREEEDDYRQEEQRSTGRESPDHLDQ

[7] = target: T1, glycoprotein antigen present on colon cancer cells, recognized by A33 (Homo sapiens (Human))
[8] = target: T1, glycoprotein antigen present on colon cancer cells, recognized by A33 (Homo sapiens (Human)); experiment: competition with 125I-labelled native antibody on COLO 205 cells; IC50 (reference) / IC50 (sample)
[9] = target: polyepithelial mucin (PEM) antigen on cells (human) (UniProt P15941); experiment: competition with 125I-labelled native antibody on A2780DDP cells; IC50 (reference) / IC50 (sample)
Chain of polyepithelial mucin (PEM) antigen on cells (human) (P15941 24-1255): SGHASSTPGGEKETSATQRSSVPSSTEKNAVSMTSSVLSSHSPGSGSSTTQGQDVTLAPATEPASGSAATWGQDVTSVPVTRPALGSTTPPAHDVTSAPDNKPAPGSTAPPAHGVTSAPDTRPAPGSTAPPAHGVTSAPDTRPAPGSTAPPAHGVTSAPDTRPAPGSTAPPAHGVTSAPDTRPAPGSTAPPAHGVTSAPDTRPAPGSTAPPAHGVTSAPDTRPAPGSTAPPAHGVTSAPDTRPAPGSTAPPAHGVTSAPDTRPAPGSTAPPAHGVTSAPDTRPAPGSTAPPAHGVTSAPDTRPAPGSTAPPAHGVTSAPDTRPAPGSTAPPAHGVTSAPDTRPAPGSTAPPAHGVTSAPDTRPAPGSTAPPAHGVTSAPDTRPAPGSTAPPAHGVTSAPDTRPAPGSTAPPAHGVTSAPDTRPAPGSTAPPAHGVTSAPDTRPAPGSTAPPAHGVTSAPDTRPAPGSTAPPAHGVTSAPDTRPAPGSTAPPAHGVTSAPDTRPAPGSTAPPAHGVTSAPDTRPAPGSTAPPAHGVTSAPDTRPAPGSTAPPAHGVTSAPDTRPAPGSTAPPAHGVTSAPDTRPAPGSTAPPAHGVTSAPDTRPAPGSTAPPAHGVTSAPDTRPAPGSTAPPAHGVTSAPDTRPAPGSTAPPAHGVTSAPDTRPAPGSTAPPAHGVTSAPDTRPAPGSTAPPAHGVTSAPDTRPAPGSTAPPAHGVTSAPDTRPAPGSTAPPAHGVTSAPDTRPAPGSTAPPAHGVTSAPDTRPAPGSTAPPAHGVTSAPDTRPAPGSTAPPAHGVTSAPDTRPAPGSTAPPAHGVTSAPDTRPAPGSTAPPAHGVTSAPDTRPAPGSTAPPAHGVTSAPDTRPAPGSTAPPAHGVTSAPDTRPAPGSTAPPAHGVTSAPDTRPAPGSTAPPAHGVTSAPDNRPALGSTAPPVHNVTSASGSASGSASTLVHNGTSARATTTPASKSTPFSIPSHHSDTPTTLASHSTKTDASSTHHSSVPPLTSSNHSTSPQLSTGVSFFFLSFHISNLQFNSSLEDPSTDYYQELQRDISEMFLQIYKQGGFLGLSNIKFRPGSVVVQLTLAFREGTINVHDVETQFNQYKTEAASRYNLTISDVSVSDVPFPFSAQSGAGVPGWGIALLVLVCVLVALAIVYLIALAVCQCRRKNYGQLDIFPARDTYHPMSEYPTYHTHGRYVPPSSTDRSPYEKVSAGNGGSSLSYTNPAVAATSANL

[10] = target: polyepithelial mucin (PEM) antigen on cells (human) (UniProt P15941)
[11] = target: polyepithelial mucin (PEM) antigen on cells (human) (UniProt P15941); remark: listed apart in the source
[12] = target: T2, polymorphic epithelial mucin (PEM) (human, UniProt P15941); experiment: reactivity of affinity column fractions with the CTM01 MAb
CD33 antigen (human) [13] = target: CD33 antigen (human) (UniProt P20138); experiment: competition with 125I-labelled native antibody on HEL 92.1.7 cells; IC50 (reference) / IC50 (sample); remark: listed apart in the source
CD33 antigen (human) [14] = target: CD33 antigen (human) (UniProt P20138); remark: listed apart in the source
CD33 antigen (human) [15] = target: CD33 antigen (human) (UniProt P20138); remark: listed apart in the source
CD33 antigen (human) [16] = target: CD33 antigen (human) (UniProt P20138); remark: listed apart in the source
CD33 antigen (human) [17] = target: CD33 antigen (human) (UniProt P20138); remark: listed apart in the source
CD33 antigen (human) [18] = target: CD33 antigen (human) (UniProt P20138); remark: listed apart in the source
CD33 antigen (human) [19] = target: CD33 antigen (human) (UniProt P20138); remark: listed apart in the source
CD33 antigen (human) [20] = target: CD33 antigen (human) (UniProt P20138); remark: listed apart in the source
CD33 antigen (human) [21] = target: CD33 antigen (human) (UniProt P20138); experiment: competition binding on HL60 cells against murine antibody
soluble CD33 antigen = soluble CD33 antigen (Homo sapiens (Human), UniProt P20138); experiment: inhibition of binding to HL60 cells by pre-incubation with soluble antigen
CD33 antigen (human) [22] = target: CD33 antigen (human) (UniProt P20138); remark: listed apart in the source
[23] = target: T2, polymorphic epithelial mucin (PEM); experiment: competition EIA on PEM-coated plates; competitor biotinylated CTM01 MAb

Rel. Affinity (CD33 antigen (human) [1]): 0.73
In vitro IC50 (3H-thymidine incorporation) (CD33 antigen (human) [2]): < 0.005 ng/mL
Molecule: Conjugate of 5-(4-acetylphenyl)amino!-5-oxopentanoic acid (24) condensed with Calicheamicin N-acetyl gamma dimethyl hydrazide and m-P67.6 (antibody)

Rel. Affinity (CD33 antigen (human) [1]): 1.16
In vitro IC50 (3H-thymidine incorporation) (CD33 antigen (human) [3]): 0.47 ng/mL
Molecule: Conjugate of 11-(4-acetylphenoxy)undecanoic acid (23) condensed with Calicheamicin N-acetyl gamma dimethyl hydrazide and m-P67.6 (antibody)

Molecule: Conjugate of 5-acetyl-2-(3-carboxypropoxy)benzoic acid (26), methyl ester condensed with Calicheamicin N-acetyl gamma dimethyl hydrazide and h-P67.6 (antibody)
In vitro IC50 (3H-thymidine incorporation) (CD33 antigen (human) [4]): < 0.005 ng/mL
Rel. Affinity (CD33 antigen (human) [1]): 0.79

In vitro IC50 (3H-thymidine incorporation) (CD33 antigen (human) [5]): 4 ng/mL
Rel. Affinity (CD33 antigen (human) [1]): 1.05
Molecule: Conjugate of 4-formylbenzoic acid (2) condensed with Calicheamicin N-acetyl gamma dimethyl hydrazide and m-P67.6 (antibody)

relative potency against the murine antibody [6]: 75%
Molecule: humanized A33 (antibody)

In vitro IC50 (3H-thymidine incorporation) [7]: 3.32 ng/mL
Rel. Affinity [8]: 0.68
B1: Conjugate of 4-(4-acetylphenoxy)butanoic acid (7) condensed with calicheamicin N-acetyl gamma dimethyl hydrazide and m-A33 (antibody, V domains shown)
VH: EVKLVESGGGLVKPGGSLKLSCAASGFAFSTYDMSWVRQTPEKRLEWVATISSGGSYTYYLDSVKGRFTISRDSPRNTLYLQMSSLRSEDTALYYCAPTTVVPFAYWGQGTLVTVSA
VL: DIVMTQSQKFMSTSVGDRVSITCKASQNVRTVVAWYQQKPGQSPKTLIYLASNRHTGVPDRFTGSGSGTDFTLTISNVQSEDLADYFCLQHWSYPLTFGSGTKLEVKR
modifications: drug-linker amide on lysine side chains, sites not stated; drug-linker amide on lysine side chains, sites not stated

Rel. Affinity [9]: 0.84
In vitro IC50 (3H-thymidine incorporation) [10]: 1.5 ng/mL
B2: Conjugate of 4-formylphenoxyacetic acid (1) condensed with Calicheamicin N-acetyl gamma dimethyl hydrazide and m-CT-M-01 (antibody, V domains shown)
VH: QIQLQQSGPELVKPGASVKISCKASGYTFTDYYINWMKQKPGQGLEWIGWIDPGSGNTKYNEKFKGKATLTVDTSSSTAYMQLSSLTSEDTAVYFCAREKTTYYYAMDYWGQGTSVTVSA
VL: DIVMTQAAPSVPVTPGESLSISCRSSKSLLHSNGDTFLYWFLQRPGQSPQLLIYRMSNLASGVPDRFSGSGSGTAFTLRVSRVEAEDVGVYYCMQHLEYPFTFGAGTKLELKR
modifications: drug-linker amide on lysine side chains, sites not stated; drug-linker amide on lysine side chains, sites not stated

In vitro IC50 (3H-thymidine incorporation) [11]: 5.6 ng/mL
Rel. Affinity [9]: 0.9
B3: Conjugate of 4-formylbenzoic acid (2) condensed with Calicheamicin N-acetyl gamma dimethyl hydrazide and m-CT-M-01 (antibody, V domains shown)
VH: B2 VH
VL: B2 VL
modifications: drug-linker amide on lysine side chains, sites not stated; drug-linker amide on lysine side chains, sites not stated

binding result [12]: binds
B4: CTM01 MAb (antibody, V domains shown)
VH: B2 VH
VL: B2 VL

Rel. Affinity (CD33 antigen (human) [13]): 0.8
In vitro IC50 (3H-thymidine incorporation) (CD33 antigen (human) [14]): 0.43 ng/mL
B5: Conjugate of 11-(4-acetylphenoxy)undecanoic acid (23) condensed with Calicheamicin N-acetyl gamma dimethyl hydrazide and h-P67.6 (antibody, V domains shown)
VH: EVQLVQSGAEVKKPGSSVKVSCKASGYTITDSNIHWVRQAPGQSLEWIGYIYPYNGGTDYNQKFKNRATLTVDNPTNTAYMELSSLRSEDTDFYYCVNGNPWLAYWGQGTLVTVSS
VL: DIQLTQSPSTLSASVGDRVTITCRASESLDNYGIRFLTWFQQKPGKAPKLLMYAASNQGSGVPSRFSGSGSGTEFTLTISSLQPDDFATYYCQQTKEVPWSFGQGTKVEVKR
modifications: drug-linker amide on lysine side chains, sites not stated; drug-linker amide on lysine side chains, sites not stated

Rel. Affinity (CD33 antigen (human) [13]): 0.91
In vitro IC50 (3H-thymidine incorporation) (CD33 antigen (human) [15]): < 0.005 ng/mL
B6: Conjugate of 4-acetylphenylacetic acid (33) condensed with Calicheamicin N-acetyl gamma dimethyl hydrazide and h-P67.6 (antibody, V domains shown)
VH: B5 VH
VL: B5 VL
modifications: drug-linker amide on lysine side chains, sites not stated; drug-linker amide on lysine side chains, sites not stated

In vitro IC50 (3H-thymidine incorporation) (CD33 antigen (human) [16]): 0.023 ng/mL
Rel. Affinity (CD33 antigen (human) [13]): 1.3
B7: Conjugate of 4-(4-formyl-2-nitrophenoxy)butanoic acid (27) condensed with Calicheamicin N-acetyl gamma dimethyl hydrazide and h-P67.6 (antibody, V domains shown)
VH: B5 VH
VL: B5 VL
modifications: drug-linker amide on lysine side chains, sites not stated; drug-linker amide on lysine side chains, sites not stated

In vitro IC50 (3H-thymidine incorporation) (CD33 antigen (human) [17]): 0.021 ng/mL
Rel. Affinity (CD33 antigen (human) [13]): 1.25
B8: Conjugate of 2-acetyl-10H-phenothiazine-10-hexanoic acid (32) condensed with Calicheamicin N-acetyl gamma dimethyl hydrazide and h-P67.6 (antibody, V domains shown)
VH: B5 VH
VL: B5 VL
modifications: drug-linker amide on lysine side chains, sites not stated; drug-linker amide on lysine side chains, sites not stated

In vitro IC50 (3H-thymidine incorporation) (CD33 antigen (human) [18]): 0.005 ng/mL
Rel. Affinity (CD33 antigen (human) [13]): 1.01
B9: Conjugate of 4-(4-acetyl-3-fluorophenoxy)butanoic acid (30) condensed with Calicheamicin N-acetyl gamma dimethyl hydrazide and h-P67.6 (antibody, V domains shown)
VH: B5 VH
VL: B5 VL
modifications: drug-linker amide on lysine side chains, sites not stated; drug-linker amide on lysine side chains, sites not stated

In vitro IC50 (3H-thymidine incorporation) (CD33 antigen (human) [19]): < 0.005 ng/mL
Rel. Affinity (CD33 antigen (human) [13]): 0.85
B10: Conjugate of 4-2-(4-acetylphenyl)amino!methyl!-6-methoxyphenoxy!butanoic acid (28) condensed with Calicheamicin N-acetyl gamma dimethyl hydrazide and h-P67.6 (antibody, V domains shown)
VH: B5 VH
VL: B5 VL
modifications: drug-linker amide on lysine side chains, sites not stated; drug-linker amide on lysine side chains, sites not stated

In vitro IC50 (3H-thymidine incorporation) (CD33 antigen (human) [20]): 0.0071 ng/mL
Rel. Affinity (CD33 antigen (human) [13]): 0.31
B11: Conjugate of 4-(2-chloro-4-formylphenoxy)butanoic acid (25) condensed with Calicheamicin N-acetyl gamma dimethyl hydrazide and h-P67.6 (antibody, V domains shown)
VH: B5 VH
VL: B5 VL
modifications: drug-linker amide on lysine side chains, sites not stated; drug-linker amide on lysine side chains, sites not stated

loss in immunoaffinity against the murine antibody (CD33 antigen (human) [21]): 50%
binding result (soluble CD33 antigen): binds
B12: h-P67.6 (antibody, V domains shown)
VH: B5 VH
VL: B5 VL

Rel. Affinity (CD33 antigen (human) [13]): 0.95
In vitro IC50 (3H-thymidine incorporation) (CD33 antigen (human) [22]): < 0.005 ng/mL
B13: Conjugate of 4-(2-Acetylphenoxy)butanoic acid (31) condensed with Calicheamicin N-acetyl gamma dimethyl hydrazide and h-P67.6 (antibody, V domains shown)
VH: B5 VH
VL: B5 VL
modifications: drug-linker amide on lysine side chains, sites not stated; drug-linker amide on lysine side chains, sites not stated

binding result [23]: binds
B14: gL1gH2 (antibody, V domains shown)
VH: QIQLVQSGAEVKKPGSSVKVSCKASGYTFTDYYINWMRQAPGQGLEWIGWIDPGSGNTKYNEKFKGRATLTVDTSTNTAYMELSSLRSEDTAFYFCAREKTTYYYAMDYWGQGTLVTVSS
VL: DIQMTQSPSTLSASVGDRVTITCRSSKSLLHSNGDTFLYWFQQKPGKAPKLLMYRMSNLASGVPSRFSGSGSGTEFTLTISSLQPDDFATYYCMQHLEYPFTFGQGTKVEVKR

Source: patent US5773001 (American Cyanamid Company, dated 1998)
